Measured values: article PMC5616090

Columns and labels:
[1] = target: Tumor susceptibility gene-101 coiled coil domain (TSG101cc), residues 229-304 (human) (UniProt Q99816); assay: circular dichroism thermal unfolding
[2] = target: Tumor susceptibility gene-101 coiled coil domain (TSG101cc), residues 229-304 (human) (UniProt Q99816); assay: differential scanning calorimetry
Q99816 [3] = assay: circular dichroism thermal unfolding; settings: other: circular dichroism thermal unfolding
Q99816 [4] = assay: differential scanning calorimetry; settings: other: differential scanning calorimetry

Sequence of Tumor susceptibility gene-101 coiled coil domain (TSG101cc), residues 229-304 (Q99816 2-390): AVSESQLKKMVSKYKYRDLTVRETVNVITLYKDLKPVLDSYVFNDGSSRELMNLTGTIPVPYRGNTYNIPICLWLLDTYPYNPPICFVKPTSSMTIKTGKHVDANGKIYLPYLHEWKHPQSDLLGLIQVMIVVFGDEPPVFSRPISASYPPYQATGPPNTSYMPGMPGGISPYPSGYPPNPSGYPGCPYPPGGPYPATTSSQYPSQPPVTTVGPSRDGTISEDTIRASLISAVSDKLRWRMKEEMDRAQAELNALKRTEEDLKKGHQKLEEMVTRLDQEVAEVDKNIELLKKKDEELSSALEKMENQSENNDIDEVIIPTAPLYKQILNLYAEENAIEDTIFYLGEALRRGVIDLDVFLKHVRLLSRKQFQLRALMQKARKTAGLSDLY

Tumor susceptibility gene-101 coiled coil domain (TSG101cc), residues 229-304 (from UniProt Q99816 229-304) (domain or fragment)
stoichiometry N [1]: 4 | stoichiometry N [2]: 4

Tumor susceptibility gene-101 coiled coil domain (TSG101cc), residues 229-304
dH (unfolding and dissociation of the tetramer, per mol of monomer) (Q99816 [3]): 56.5 kcal/mol | dH (unfolding and dissociation of the tetramer, per mol of monomer) (Q99816 [4]): 45.6 kcal/mol
